These results are taken from patent US20230212549A1 (3B PHARMACEUTICALS, published 2023).

The target in assay [1] is T1, human fibroblast activation protein (FAP) on WI-38 fibroblasts (human, UniProt Q12884 1-760).
T1 construct: FAP-expressing human WI-38 fibroblasts (ECACC)
The assay is described as follows: competitive FACS, WI-38 cells, Cy5-labeled peptide as competitor; B = pIC50 7.1 to 8.0.

In assay [2] the target is T2, Recombinant human FAP (R&D systems, #3715-SE) (human, UniProt Q12884 26-760). The assay is described as follows: cell-based or functional assay.
Assay [3] concerns the target T2, Recombinant human FAP (R&D systems, …). The assay is described as follows: SPR (Biacore T200), FAP captured on anti-FAP antibody, single cycle kinetics.
Assay [4] addresses T3, human fibroblast activating protein (FAP) on WI-38 fibroblasts (human, UniProt Q12884 1-760).
T3 construct: FAP-expressing human WI-38 fibroblasts (ECACC)
Kind of assay: competitive FACS on WI-38 cells vs 3 nM Cy5-labeled peptide; pIC50 category B = 7.1-8.0.

Numbered stars: 1 amine (or outer) side, 2 acyl side, 3 side chain; on linkers, the order of the positions; unused ones are H or OH. Bridge positions count the residues as written; N and C are the ends. Square brackets hold non-standard residues; d marks the D form. Primed or numbered codes have the meaning given here. * marks the point of attachment. tMeBn(LuDOTA-AET) = 1,3,5-trimethylbenzylidene (from 1,3,5-tris(bromomethyl)benzene) bridge with two thioethers to the Cys, its third CH2 carries AET (2-aminoethanethiol, attached through S), whose amine is acylated by DOTA complexing lutet, O=C([O-])CN1CCN(CC(=O)[O-])CCN(CC(=O)NCCSCc2cc(C[*:1])cc(C[*:2])c2)CCN(CC(=O)[O-])CC1.[Lu+3]; tMeBn(DOTA-PP) = 1,3,5-trimethylbenzylidene, two thioethers to Cys, third CH2 bound to one N of piperazine whose other N bears DOTA, O=C(O)CN1CCN(CC(=O)O)CCN(CC(=O)N2CCN(Cc3cc(C[*:1])cc(C[*:2])c3)CC2)CCN(CC(=O)O)CC1; Ttds″ = 1,13-diamino-4,7,10-trioxatridecan-succinamic acid spacer, O=C(CCC(=O)[*:2])NCCCOCCOCCOCCCN[*:1]; Ttds = 1,13-diamino-4,7,10-trioxatridecan-succinamic acid, O=C(CCC(=O)[*:2])NCCCOCCOCCOCCCN[*:1]; 3MeBn = 3-Methylbenzylidene (m-xylylene thioether bridge from α,α′-dibromo-m-xylene); Ttds(4) = spacer between chelator and peptide, O=C(CCC(=O)[*:2])NCCCOCCOCCOCCCN[*:1]; N4Ac = 6-Carboxy-1,4,8,11-tetraazaundecane, an N4-chelator, NCCNCC(CNCCN)C(=O)*; NODAGA′ = 1,4,7-triazacyclononane-1-glutaric acid-4,7-diacetic acid chelator; mXylylene = c1cc(C[*:1])cc(C[*:2])c1; PPAc = 4-Carboxymethyl piperazine; AF488 = Alexa Fluor 488 label; Nle = CCCC[C@H](N)C(=O)O; PEG6′ = not defined here; Hexanoyl = CCCCCC(=O)*; Ahx = NCCCCCC(=O)O; GABA = NCCCC(=O)O

B1: H-Ahx-Ttds-Nle-[Cys-(tMeBn(DOTA-PP))-Pro-Pro-Thr-Gln-Phe-Cys]-Asp-NH2 (peptide)
peptide: H-[Ahx][Ttds][Nle]CPPTQFCD-NH2
modifications: linker 4-10 via tMeBn(DOTA-PP)
SMILES: CCCC[C@H](NC(=O)CCC(=O)NCCCOCCOCCOCCCNC(=O)CCCCCN)C(=O)N[C@H]1CSCc2cc(cc(CN3CCN(C(=O)CN4CCN(CC(=O)O)CCN(CC(=O)O)CCN(CC(=O)O)CC4)CC3)c2)CSC[C@@H](C(=O)N[C@@H](CC(=O)O)C(N)=O)NC(=O)[C@H](Cc2ccccc2)NC(=O)[C@H](CCC(N)=O)NC(=O)[C@H]([C@@H](C)O)NC(=O)[C@@H]2CCCN2C(=O)[C@@H]2CCCN2C1=O
notes: also called 3BP-4004
In turn, B1 came in with a pIC50 in assay [1] of 7.1 to 8 pic50. In addition, the “pIC50 Category (Activity)” value in assay [2] is more than 8 pIC50.

B2: N4Ac-Glu(AGLU′)-Ttds-Nle-[Cys-(3MeBn)-Pro-Pro-Thr-Glu-Phe-Cys]-OH (peptide)
peptide: N4Ac-E[Ttds″][Nle]CPPTEFC-OH
modifications: linker 4-10 via 3MeBn; not fully specified (residue 1); printed as N4Ac--E(AGLU)--Ttds--Nle--[C(3MeBn)-PPTEFC]-OH
notes: also called 3BP-4249
In the case of B2, in assay [1], the pIC50 was 7.1 to 8 pic50. Further, in assay [3], the “pKD Category” value was more than 8 pKD.

B3: Hex-[Cys(tMeBn(LuDOTA-AET))-Pro-Pro-Thr-Gln-Phe-Cys]-Asp-Gab-Arg-Ttds-Ttds-Ttds-Lys(AF488)-NH2 (peptide)
peptide: Hexanoyl-CPPTQFCD[GABA]R[Ttds″][Ttds″][Ttds″]K(AF488)-NH2
modifications: linker 1-7 via tMeBn(LuDOTA-AET); also: Lu complexed by DOTA
notes: also called 3BP-4373
With B3, the pIC50 in assay [1] is 7.1 to 8 pic50. Besides, the “pIC50 Category (Activity)” value in assay [2] was more than 8 pIC50.

B4: Hex-[C(tMeBn(GaNOPO-AET))-PPTEFC]-OH (peptide)
peptide: Hexanoyl-CPPTEFC-OH
modifications: linker 1-7 via tMeBn(GaNOPO-AET); also: gallium-NOPO chelator-AET arm on the linker
notes: also called 3BP-4816
In assay [4], B4 had a pIC50 of 7.1 to 8 pic50.

B5: Hex-[C(tMeBn(NODAGA-AET))-PPTEFC]-OH (peptide)
peptide: CPPTEFC
modifications: N-term Hex-; Cys1 and Cys7 thioether-bridged by tMeBn(NODAGA-AET); C-term -OH
notes: also called 3BP-4695
In assay [4], B5 yielded a pIC50 of 7.1 to 8 pic50.

B6: Hex-[C(tMeBn(NOPO-AET))-PPTEFC]-OH (peptide)
peptide: Hexanoyl-CPPTEFC-OH
modifications: linker 1-7 via tMeBn(NOPO-AET)
notes: also called 3BP-4818
With B6, in assay [4], the pIC50 was 7.1 to 8 pic50.

B7: N4Ac-PEG6-Ttds-Nle-[C(3MeBn)-PPTEFC]-OH (peptide)
peptide: {N4Ac-PEG6′-Ttds(4)}-[Nle]CPPTEFC-OH
modifications: linker 2-8 via 3MeBn
notes: also called 3BP-4780
For B7, the pIC50 in assay [4] fell in the range of 7.1 to 8 pic50.

B8: N4Ac-PPAc-PEG6-Nle-[C(3MeBn)-PPTEFC]-OH (peptide)
peptide: {N4Ac-PPAc-PEG6′}-[Nle]CPPTEFC-OH
modifications: linker 2-8 via 3MeBn
notes: also called 3BP-4781
B8 displayed a pIC50 in assay [4] of 7.1 to 8 pic50.

B9: N4Ac-PPAc-Ttds-Nle-[C(3MeBn)-PPTEFC]-OH (peptide)
peptide: {N4Ac-PPAc-Ttds(4)}-[Nle]CPPTEFC-OH
modifications: linker 2-8 via 3MeBn
notes: also called 3BP-4782
In turn, B9 returned a pIC50 in assay [4] of 7.1 to 8 pic50.

B10: NODAGA-Ttds-Nle-[C(3MeBn)-PPTEFC]-OH (peptide)
peptide: {NODAGA′-Ttds(4)}-[Nle]CPPTEFC-OH
modifications: linker 2-8 via mXylylene
notes: also called 3BP-4714
Consider B10, for which, in assay [4], the pIC50 fell in the range of 7.1 to 8 pic50.

B11: NODAGA-Ttds-Nle-[C(3MeBn)-PPTEFC]-NH2 (peptide)
peptide: {NODAGA′-Ttds(4)}-[Nle]CPPTEFC-NH2
modifications: linker 2-8 via mXylylene
notes: also called 3BP-4743
B11 yielded a pIC50 in assay [4] of 7.1 to 8 pic50.

B12: Hex-[Cys-(tMeBn(H-AET))-Pro-Pro-Thr-Gln-Phe-Cys]-Asp-NH2 (peptide)
peptide: Hexanoyl-CPPTQFCD-NH2
modifications: linker 1-7 via tMeBn(H-AET)
notes: also called 3BP-3981
Consider B12, for which the pIC50 in assay [1] was 7.1 to 8 pic50. Further, in assay [2], the “pIC50 Category (Activity)” value is more than 8 pIC50.

B13: N4Ac-PEG6-Nle-[Cys-(3MeBn)-Pro-Pro-Thr-Glu-Phe-Cys]-OH (peptide)
peptide: N4Ac-[PEG6′][Nle]CPPTEFC-OH
modifications: linker 3-9 via 3MeBn
notes: also called 3BP-4221
As for B13, the pIC50 in assay [1] is 7.1 to 8 pic50. For the same molecule, the “pKD Category” value in assay [3] is more than 8 pKD.

B14: N4Ac-Glu-Ttds-Nle-[Cys-(3MeBn)-Pro-Pro-Thr-Glu-Phe-Cys]-OH (peptide)
peptide: N4Ac-E[Ttds″][Nle]CPPTEFC-OH
modifications: linker 4-10 via 3MeBn
notes: also called 3BP-4222
In assay [1], B14 gave a pIC50 of 7.1 to 8 pic50. Also, the “pKD Category” value in assay [3] is more than 8 pKD.
